Results: the supplement of paper PMC9112550, “Optimization of the antimicrobial peptide Bac7 by deep mutational scanning” (BMC Biology, 2022)

Tested on: Escherichia coli TOP10
Test: shrunken log2 fold change of peptide-encoding DNA abundance (4.5 h post-induction vs induction); higher = less antimicrobial activity (less host growth inhibition)
Conditions: time post-induction: 4.5 h; library: site-saturation at positions 5, 18, 19, 20
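Also: peptides expressed intracellularly from a pBAD plasmid library in pooled LB shake-flask culture, induced with 0.3% L-arabinose, DNA abundance read by NGS, three biological replicates, DESeq2 with apeglm shrinkage.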

| Sequence | shrunken log2 fold change |
| --- | --- |
| RRIRGRPPRLPRPRPRPPLRPRP | 0.796 |
| RRIRNRPPRLPRPRPRPTLFPRP | 0.0912 |
| RRIRYRPPRLPRPRPRPCHTPRP | -0.141 |
| RRIRHRPPRLPRPRPRPQGPPRP | -0.235 |
| RRIRLRPPRLPRPRPRPDYWPRP | -0.596 |
| RRIRKRPPRLPRPRPRPHTRPRP | 0.29 |
| RRIRVRPPRLPRPRPRPPLFPRP | 0.256 |
| RRIRKRPPRLPRPRPRPPGPPRP | 1.04 |
| RRIRLRPPRLPRPRPRPHSDPRP | -0.175 |
| RRIRDRPPRLPRPRPRPEYWPRP | 0.0559 |
| RRIRERPPRLPRPRPRPYEPPRP | 0.029 |
| RRIRMRPPRLPRPRPRPIWQPRP | -0.224 |
| RRIRRRPPRLPRPRPRPVWCPRP | 0.273 |
| RRIRVRPPRLPRPRPRPNIWPRP | -0.13 |
| RRIRTRPPRLPRPRPRPDYSPRP | -0.0445 |
| RRIRKRPPRLPRPRPRPRHPPRP | 0.412 |
| RRIRTRPPRLPRPRPRPDKYPRP | -0.147 |
| RRIRSRPPRLPRPRPRPEMVPRP | 0.0797 |
| RRIRFRPPRLPRPRPRPKFNPRP | -0.588 |
| RRIRFRPPRLPRPRPRPMYLPRP | -0.376 |
| RRIRWRPPRLPRPRPRPDCWPRP | 0.967 |
| RRIRFRPPRLPRPRPRPNNGPRP | -0.151 |
| RRIRYRPPRLPRPRPRPETHPRP | -0.863 |
| RRIRGRPPRLPRPRPRPTTAPRP | 1.31 |
| RRIRNRPPRLPRPRPRPFATPRP | -0.101 |

| Sequence | shrunken log2 fold change |
| --- | --- |
| RRIRGRPPRLPRPRPRPFVAPRP | 0.751 |
| RRIRKRPPRLPRPRPRPKPDPRP | 0.861 |
| RRIRYRPPRLPRPRPRPHRTPRP | -0.527 |
| RRIRIRPPRLPRPRPRPIWDPRP | -0.282 |
| RRIRHRPPRLPRPRPRPKDLPRP | -0.0584 |
| RRIRWRPPRLPRPRPRPLLMPRP | 0.284 |
| RRIRHRPPRLPRPRPRPPVYPRP | 0.118 |
| RRIRWRPPRLPRPRPRPIPFPRP | -0.102 |
| RRIRERPPRLPRPRPRPPHGPRP | 0.19 |
| RRIRYRPPRLPRPRPRPTMSPRP | -0.0772 |
| RRIRLRPPRLPRPRPRPDYEPRP | -0.645 |
| RRIRNRPPRLPRPRPRPCDAPRP | -0.195 |
| RRIRRRPPRLPRPRPRPIPVPRP | 0.265 |
| RRIRCRPPRLPRPRPRPNDYPRP | -0.42 |
| RRIRPRPPRLPRPRPRPKVTPRP | 0.0845 |
| RRIRIRPPRLPRPRPRPYFWPRP | -0.388 |
| RRIRARPPRLPRPRPRPWKGPRP | 0.142 |
| RRIRERPPRLPRPRPRPYVQPRP | -0.0184 |
| RRIRMRPPRLPRPRPRPYLQPRP | -0.0699 |
| RRIRKRPPRLPRPRPRPTFRPRP | 0.527 |
| RRIRNRPPRLPRPRPRPFWQPRP | 0.201 |
| RRIRARPPRLPRPRPRPKPTPRP | 0.744 |
| RRIRHRPPRLPRPRPRPNRHPRP | -0.281 |
| RRIRARPPRLPRPRPRPYMHPRP | -0.361 |
| RRIRNRPPRLPRPRPRPFNDPRP | -0.0288 |

| Sequence | shrunken log2 fold change |
| --- | --- |
| RRIRNRPPRLPRPRPRPRTHPRP | -0.184 |
| RRIRQRPPRLPRPRPRPFSKPRP | -0.218 |
| RRIRHRPPRLPRPRPRPKSPPRP | -0.0893 |
| RRIRIRPPRLPRPRPRPEGGPRP | 0.155 |
| RRIRSRPPRLPRPRPRPDCMPRP | -0.165 |
| RRIRFRPPRLPRPRPRPKFKPRP | -0.238 |
| RRIRYRPPRLPRPRPRPDNEPRP | -0.258 |
| RRIRGRPPRLPRPRPRPQDYPRP | -0.0805 |
| RRIRARPPRLPRPRPRPVSHPRP | 0.101 |
| RRIRARPPRLPRPRPRPHIHPRP | -0.45 |
| RRIRQRPPRLPRPRPRPCMAPRP | -0.117 |
| RRIRSRPPRLPRPRPRPWYLPRP | -0.617 |
| RRIRLRPPRLPRPRPRPTPRPRP | 0.763 |
| RRIRTRPPRLPRPRPRPHGQPRP | -0.0788 |
| RRIRSRPPRLPRPRPRPRNVPRP | 0.0864 |
| RRIRDRPPRLPRPRPRPANKPRP | -0.261 |
| RRIRRRPPRLPRPRPRPVNNPRP | -0.12 |
| RRIRARPPRLPRPRPRPINNPRP | -0.441 |
| RRIRDRPPRLPRPRPRPRWPPRP | 0.594 |
| RRIRCRPPRLPRPRPRPRWAPRP | 0.453 |
| RRIRSRPPRLPRPRPRPAFFPRP | 0.328 |
| RRIRSRPPRLPRPRPRPDSDPRP | 0.051 |
| RRIRVRPPRLPRPRPRPMSYPRP | -0.0627 |
| RRIRFRPPRLPRPRPRPNIQPRP | -0.973 |
| RRIRNRPPRLPRPRPRPIFAPRP | 0.111 |

| Sequence | shrunken log2 fold change |
| --- | --- |
| RRIRMRPPRLPRPRPRPRSKPRP | 0.907 |
| RRIRHRPPRLPRPRPRPRCPPRP | 0.169 |
| RRIRRRPPRLPRPRPRPHEVPRP | 0.0299 |
| RRIRERPPRLPRPRPRPHGDPRP | -0.0135 |
| RRIRCRPPRLPRPRPRPYNSPRP | -0.325 |
| RRIRPRPPRLPRPRPRPYEEPRP | -0.214 |
| RRIRNRPPRLPRPRPRPGTFPRP | -0.281 |
| RRIRTRPPRLPRPRPRPHSIPRP | -0.0668 |
| RRIRTRPPRLPRPRPRPDMEPRP | -0.132 |
| RRIRCRPPRLPRPRPRPGGCPRP | 0.153 |
| RRIRHRPPRLPRPRPRPRAPPRP | 0.741 |
| RRIRQRPPRLPRPRPRPTIVPRP | -0.119 |
| RRIRHRPPRLPRPRPRPRTKPRP | 0.204 |
| RRIRLRPPRLPRPRPRPAISPRP | 0.118 |
| RRIRFRPPRLPRPRPRPNDLPRP | 0.00528 |
| RRIRSRPPRLPRPRPRPSHLPRP | -0.265 |
| RRIRHRPPRLPRPRPRPAVGPRP | 0.11 |
| RRIRQRPPRLPRPRPRPDDVPRP | 0.064 |
| RRIRRRPPRLPRPRPRPWFDPRP | -0.064 |
| RRIRYRPPRLPRPRPRPQGKPRP | -0.00664 |
| RRIRHRPPRLPRPRPRPFDIPRP | -0.212 |
| RRIRHRPPRLPRPRPRPDDNPRP | -0.0371 |
| RRIRVRPPRLPRPRPRPSAWPRP | 0.804 |
| RRIRNRPPRLPRPRPRPPHQPRP | 0.0134 |
| RRIRNRPPRLPRPRPRPPLHPRP | 0.0562 |

| Sequence | shrunken log2 fold change |
| --- | --- |
| RRIRDRPPRLPRPRPRPVNTPRP | -0.327 |
| RRIRQRPPRLPRPRPRPLCNPRP | -0.178 |
| RRIRARPPRLPRPRPRPGIIPRP | 0.106 |
| RRIRYRPPRLPRPRPRPHADPRP | -0.0359 |
| RRIRSRPPRLPRPRPRPEVYPRP | 0.104 |
| RRIRVRPPRLPRPRPRPGPPPRP | 0.564 |
| RRIRKRPPRLPRPRPRPKNSPRP | -0.0637 |
| RRIRRRPPRLPRPRPRPQVIPRP | -0.0307 |
| RRIRARPPRLPRPRPRPVWSPRP | 0.197 |
| RRIRARPPRLPRPRPRPQCEPRP | 0.724 |
| RRIRHRPPRLPRPRPRPWKYPRP | -0.253 |
| RRIRTRPPRLPRPRPRPWDQPRP | -0.00674 |
| RRIRFRPPRLPRPRPRPNVWPRP | 0.0725 |
| RRIRHRPPRLPRPRPRPMGLPRP | 0.00622 |
| RRIRERPPRLPRPRPRPQWLPRP | -0.168 |
| RRIRQRPPRLPRPRPRPIRKPRP | -0.0469 |
| RRIRYRPPRLPRPRPRPLHKPRP | 0.0382 |
| RRIRPRPPRLPRPRPRPHFGPRP | 0.0675 |
| RRIRARPPRLPRPRPRPNEMPRP | -0.0653 |
| RRIRCRPPRLPRPRPRPCIWPRP | -0.0143 |
| RRIRIRPPRLPRPRPRPHYLPRP | -0.0913 |
| RRIRWRPPRLPRPRPRPMAYPRP | -0.0846 |
| RRIRHRPPRLPRPRPRPGHAPRP | -0.0876 |
| RRIRYRPPRLPRPRPRPYSSPRP | -0.0396 |
| RRIRGRPPRLPRPRPRPECSPRP | 1.2 |

| Sequence | shrunken log2 fold change |
| --- | --- |
| RRIRVRPPRLPRPRPRPMENPRP | -0.0625 |
| RRIRFRPPRLPRPRPRPYSTPRP | 0.0586 |
| RRIRLRPPRLPRPRPRPVFYPRP | -0.5 |
| RRIRERPPRLPRPRPRPFHNPRP | -0.413 |
| RRIRWRPPRLPRPRPRPQEYPRP | -0.0612 |
| RRIRARPPRLPRPRPRPVVMPRP | 0.282 |
| RRIRKRPPRLPRPRPRPAAEPRP | 1.12 |
| RRIRPRPPRLPRPRPRPQWVPRP | 0.0693 |
| RRIRNRPPRLPRPRPRPWLFPRP | 0.0966 |
| RRIRTRPPRLPRPRPRPYGWPRP | -0.123 |
| RRIRPRPPRLPRPRPRPIKDPRP | -0.763 |
| RRIRQRPPRLPRPRPRPYQIPRP | -0.227 |
| RRIRVRPPRLPRPRPRPSWIPRP | -0.476 |
| RRIRKRPPRLPRPRPRPGIMPRP | -0.206 |
| RRIRCRPPRLPRPRPRPRRYPRP | -0.0183 |
| RRIRWRPPRLPRPRPRPFYAPRP | -0.174 |
| RRIRYRPPRLPRPRPRPTHNPRP | -0.702 |
| RRIRGRPPRLPRPRPRPQRWPRP | 0.293 |
| RRIRHRPPRLPRPRPRPFCRPRP | -0.108 |
| RRIRSRPPRLPRPRPRPLRRPRP | 0.404 |
| RRIRNRPPRLPRPRPRPKMTPRP | -0.149 |
| RRIRTRPPRLPRPRPRPWSQPRP | 0.0431 |
| RRIRRRPPRLPRPRPRPQGPPRP | 0.206 |
| RRIRMRPPRLPRPRPRPLRSPRP | 2.47 |
| RRIRGRPPRLPRPRPRPICYPRP | 0.543 |
